Patent US20140087995A1 (published 2014)
Numbered stars: 1 amine (or outer) side, 2 acyl side, 3 side chain; on linkers, the order of the positions; unused ones are H or OH. Bridge positions count the residues as written; N and C are the ends. Side chains are listed from the residue outwards. Ends that are not written are not given here. * marks the point of attachment. C20 diacid = O=C(O)CCCCCCCCCCCCCCCCCCC(=O)*; C18 diacid = O=C(O)CCCCCCCCCCCCCCCCC(=O)*; C16 diacid = O=C(O)CCCCCCCCCCCCCCC(=O)*; γGlu = O=C(O)[C@H](CCC(=O)[*:2])N[*:1]; C14 diacid = O=C(O)CCCCCCCCCCCCC(=O)*; AEEA = NCCOCCOCC(=O)O

B1: N^ε1-[2-[2-[2-[[(4S)-4-carboxy-4-(19-carboxynonadecanoylamino)butanoyl]amino]ethoxy]ethoxy]acetyl]-[His14,Arg17,Pro21,Pro27,Arg34]-h-amylin (peptide)
peptide: K([AEEA-γGlu-C20 diacid])CNTATCATQRLAHFLRHSSPNFGAIPSSTNVGRNTY-NH2
modifications: disulfide 2-7; N-terminus assumed
SMILES: CC[C@H](C)[C@H](NC(=O)[C@H](C)NC(=O)CNC(=O)[C@H](Cc1ccccc1)NC(=O)[C@H](CC(N)=O)NC(=O)[C@@H]1CCCN1C(=O)[C@H](CO)NC(=O)[C@H](CO)NC(=O)[C@H](Cc1c[nH]cn1)NC(=O)[C@H](CCCNC(=N)N)NC(=O)[C@H](CC(C)C)NC(=O)[C@H](Cc1ccccc1)NC(=O)[C@H](Cc1c[nH]cn1)NC(=O)[C@H](C)NC(=O)[C@H](CC(C)C)NC(=O)[C@H](CCCNC(=N)N)NC(=O)[C@H](CCC(N)=O)NC(=O)[C@@H](NC(=O)[C@H](C)NC(=O)[C@@H]1CSSC[C@H](NC(=O)[C@@H](N)CCCCNC(=O)COCCOCCNC(=O)CC[C@H](NC(=O)CCCCCCCCCCCCCCCCCCC(=O)O)C(=O)O)C(=O)N[C@@H](CC(N)=O)C(=O)N[C@@H]([C@@H](C)O)C(=O)N[C@@H](C)C(=O)N[C@@H]([C@@H](C)O)C(=O)N1)[C@@H](C)O)C(=O)N1CCC[C@H]1C(=O)N[C@@H](CO)C(=O)N[C@@H](CO)C(=O)N[C@H](C(=O)N[C@@H](CC(N)=O)C(=O)N[C@H](C(=O)NCC(=O)N[C@@H](CCCNC(=N)N)C(=O)N[C@@H](CC(N)=O)C(=O)N[C@H](C(=O)N[C@@H](Cc1ccc(O)cc1)C(N)=O)[C@@H](C)O)C(C)C)[C@@H](C)O
notes: also called compound 84
B2: N^ε1-[2-[2-[2-[[(4S)-4-carboxy-4-(19-carboxynonadecanoylamino)butanoyl]amino]ethoxy]ethoxy]acetyl]-[His14,Arg17,Pro21,Pro27,His34]-h-amylin (peptide)
peptide: K([AEEA-γGlu-C20 diacid])CNTATCATQRLAHFLRHSSPNFGAIPSSTNVGHNTY-NH2
modifications: disulfide 2-7; N-terminus assumed
SMILES: CC[C@H](C)[C@H](NC(=O)[C@H](C)NC(=O)CNC(=O)[C@H](Cc1ccccc1)NC(=O)[C@H](CC(N)=O)NC(=O)[C@@H]1CCCN1C(=O)[C@H](CO)NC(=O)[C@H](CO)NC(=O)[C@H](Cc1c[nH]cn1)NC(=O)[C@H](CCCNC(=N)N)NC(=O)[C@H](CC(C)C)NC(=O)[C@H](Cc1ccccc1)NC(=O)[C@H](Cc1c[nH]cn1)NC(=O)[C@H](C)NC(=O)[C@H](CC(C)C)NC(=O)[C@H](CCCNC(=N)N)NC(=O)[C@H](CCC(N)=O)NC(=O)[C@@H](NC(=O)[C@H](C)NC(=O)[C@@H]1CSSC[C@H](NC(=O)[C@@H](N)CCCCNC(=O)COCCOCCNC(=O)CC[C@H](NC(=O)CCCCCCCCCCCCCCCCCCC(=O)O)C(=O)O)C(=O)N[C@@H](CC(N)=O)C(=O)N[C@@H]([C@@H](C)O)C(=O)N[C@@H](C)C(=O)N[C@@H]([C@@H](C)O)C(=O)N1)[C@@H](C)O)C(=O)N1CCC[C@H]1C(=O)N[C@@H](CO)C(=O)N[C@@H](CO)C(=O)N[C@H](C(=O)N[C@@H](CC(N)=O)C(=O)N[C@H](C(=O)NCC(=O)N[C@@H](Cc1c[nH]cn1)C(=O)N[C@@H](CC(N)=O)C(=O)N[C@H](C(=O)N[C@@H](Cc1ccc(O)cc1)C(N)=O)[C@@H](C)O)C(C)C)[C@@H](C)O
notes: also called compound 80
B3: N^ε1-[(4S)-4-carboxy-4-(13-carboxytridecanoylamino)butanoyl]-[Arg17,Pro21,Pro27,His34]-h-amylin (peptide)
peptide: K([γGlu-C14 diacid])CNTATCATQRLANFLRHSSPNFGAIPSSTNVGHNTY-NH2
modifications: disulfide 2-7; N-terminus assumed
SMILES: CC[C@H](C)[C@H](NC(=O)[C@H](C)NC(=O)CNC(=O)[C@H](Cc1ccccc1)NC(=O)[C@H](CC(N)=O)NC(=O)[C@@H]1CCCN1C(=O)[C@H](CO)NC(=O)[C@H](CO)NC(=O)[C@H](Cc1c[nH]cn1)NC(=O)[C@H](CCCNC(=N)N)NC(=O)[C@H](CC(C)C)NC(=O)[C@H](Cc1ccccc1)NC(=O)[C@H](CC(N)=O)NC(=O)[C@H](C)NC(=O)[C@H](CC(C)C)NC(=O)[C@H](CCCNC(=N)N)NC(=O)[C@H](CCC(N)=O)NC(=O)[C@@H](NC(=O)[C@H](C)NC(=O)[C@@H]1CSSC[C@H](NC(=O)[C@@H](N)CCCCNC(=O)CC[C@H](NC(=O)CCCCCCCCCCCCC(=O)O)C(=O)O)C(=O)N[C@@H](CC(N)=O)C(=O)N[C@@H]([C@@H](C)O)C(=O)N[C@@H](C)C(=O)N[C@@H]([C@@H](C)O)C(=O)N1)[C@@H](C)O)C(=O)N1CCC[C@H]1C(=O)N[C@@H](CO)C(=O)N[C@@H](CO)C(=O)N[C@H](C(=O)N[C@@H](CC(N)=O)C(=O)N[C@H](C(=O)NCC(=O)N[C@@H](Cc1c[nH]cn1)C(=O)N[C@@H](CC(N)=O)C(=O)N[C@H](C(=O)N[C@@H](Cc1ccc(O)cc1)C(N)=O)[C@@H](C)O)C(C)C)[C@@H](C)O
B4: N^ε1-[(4S)-4-carboxy-4-(15-carboxypentadecanoylamino)butanoyl]-[Arg17,Pro21,Pro27,His34]-h-amylin (peptide)
peptide: K([γGlu-C16 diacid])CNTATCATQRLANFLRHSSPNFGAIPSSTNVGHNTY-NH2
modifications: disulfide 2-7; N-terminus assumed
SMILES: CC[C@H](C)[C@H](NC(=O)[C@H](C)NC(=O)CNC(=O)[C@H](Cc1ccccc1)NC(=O)[C@H](CC(N)=O)NC(=O)[C@@H]1CCCN1C(=O)[C@H](CO)NC(=O)[C@H](CO)NC(=O)[C@H](Cc1c[nH]cn1)NC(=O)[C@H](CCCNC(=N)N)NC(=O)[C@H](CC(C)C)NC(=O)[C@H](Cc1ccccc1)NC(=O)[C@H](CC(N)=O)NC(=O)[C@H](C)NC(=O)[C@H](CC(C)C)NC(=O)[C@H](CCCNC(=N)N)NC(=O)[C@H](CCC(N)=O)NC(=O)[C@@H](NC(=O)[C@H](C)NC(=O)[C@@H]1CSSC[C@H](NC(=O)[C@@H](N)CCCCNC(=O)CC[C@H](NC(=O)CCCCCCCCCCCCCCC(=O)O)C(=O)O)C(=O)N[C@@H](CC(N)=O)C(=O)N[C@@H]([C@@H](C)O)C(=O)N[C@@H](C)C(=O)N[C@@H]([C@@H](C)O)C(=O)N1)[C@@H](C)O)C(=O)N1CCC[C@H]1C(=O)N[C@@H](CO)C(=O)N[C@@H](CO)C(=O)N[C@H](C(=O)N[C@@H](CC(N)=O)C(=O)N[C@H](C(=O)NCC(=O)N[C@@H](Cc1c[nH]cn1)C(=O)N[C@@H](CC(N)=O)C(=O)N[C@H](C(=O)N[C@@H](Cc1ccc(O)cc1)C(N)=O)[C@@H](C)O)C(C)C)[C@@H](C)O
B5: N^ε1-[(4S)-4-carboxy-4-(17-carboxyheptadecanoylamino)butanoyl]-[Arg17,Pro21,Pro27,His34]-h-amylin (peptide)
peptide: K([γGlu-C18 diacid])CNTATCATQRLANFLRHSSPNFGAIPSSTNVGHNTY-NH2
modifications: disulfide 2-7; N-terminus assumed
SMILES: CC[C@H](C)[C@H](NC(=O)[C@H](C)NC(=O)CNC(=O)[C@H](Cc1ccccc1)NC(=O)[C@H](CC(N)=O)NC(=O)[C@@H]1CCCN1C(=O)[C@H](CO)NC(=O)[C@H](CO)NC(=O)[C@H](Cc1c[nH]cn1)NC(=O)[C@H](CCCNC(=N)N)NC(=O)[C@H](CC(C)C)NC(=O)[C@H](Cc1ccccc1)NC(=O)[C@H](CC(N)=O)NC(=O)[C@H](C)NC(=O)[C@H](CC(C)C)NC(=O)[C@H](CCCNC(=N)N)NC(=O)[C@H](CCC(N)=O)NC(=O)[C@@H](NC(=O)[C@H](C)NC(=O)[C@@H]1CSSC[C@H](NC(=O)[C@@H](N)CCCCNC(=O)CC[C@H](NC(=O)CCCCCCCCCCCCCCCCC(=O)O)C(=O)O)C(=O)N[C@@H](CC(N)=O)C(=O)N[C@@H]([C@@H](C)O)C(=O)N[C@@H](C)C(=O)N[C@@H]([C@@H](C)O)C(=O)N1)[C@@H](C)O)C(=O)N1CCC[C@H]1C(=O)N[C@@H](CO)C(=O)N[C@@H](CO)C(=O)N[C@H](C(=O)N[C@@H](CC(N)=O)C(=O)N[C@H](C(=O)NCC(=O)N[C@@H](Cc1c[nH]cn1)C(=O)N[C@@H](CC(N)=O)C(=O)N[C@H](C(=O)N[C@@H](Cc1ccc(O)cc1)C(N)=O)[C@@H](C)O)C(C)C)[C@@H](C)O
B6: N^ε1-[(4S)-4-carboxy-4-(19-carboxynonadecanoylamino)butanoyl]-[Ala14,Arg17,Pro21,Pro27,His34]-h-amylin (peptide)
peptide: K([γGlu-C20 diacid])CNTATCATQRLAAFLRHSSPNFGAIPSSTNVGHNTY-NH2
modifications: disulfide 2-7; N-terminus assumed
SMILES: CC[C@H](C)[C@H](NC(=O)[C@H](C)NC(=O)CNC(=O)[C@H](Cc1ccccc1)NC(=O)[C@H](CC(N)=O)NC(=O)[C@@H]1CCCN1C(=O)[C@H](CO)NC(=O)[C@H](CO)NC(=O)[C@H](Cc1c[nH]cn1)NC(=O)[C@H](CCCNC(=N)N)NC(=O)[C@H](CC(C)C)NC(=O)[C@H](Cc1ccccc1)NC(=O)[C@H](C)NC(=O)[C@H](C)NC(=O)[C@H](CC(C)C)NC(=O)[C@H](CCCNC(=N)N)NC(=O)[C@H](CCC(N)=O)NC(=O)[C@@H](NC(=O)[C@H](C)NC(=O)[C@@H]1CSSC[C@H](NC(=O)[C@@H](N)CCCCNC(=O)CC[C@H](NC(=O)CCCCCCCCCCCCCCCCCCC(=O)O)C(=O)O)C(=O)N[C@@H](CC(N)=O)C(=O)N[C@@H]([C@@H](C)O)C(=O)N[C@@H](C)C(=O)N[C@@H]([C@@H](C)O)C(=O)N1)[C@@H](C)O)C(=O)N1CCC[C@H]1C(=O)N[C@@H](CO)C(=O)N[C@@H](CO)C(=O)N[C@H](C(=O)N[C@@H](CC(N)=O)C(=O)N[C@H](C(=O)NCC(=O)N[C@@H](Cc1c[nH]cn1)C(=O)N[C@@H](CC(N)=O)C(=O)N[C@H](C(=O)N[C@@H](Cc1ccc(O)cc1)C(N)=O)[C@@H](C)O)C(C)C)[C@@H](C)O
notes: also called compound 93

molecular target: T1, human amylin 3(a) receptor (human calcitonin receptor co-expressed with RAMP-3) (human, UniProt P30988 25-474; O60896 24-148, limits assumed); test: cell-based or functional assay
T1 sequence (looked up) 1: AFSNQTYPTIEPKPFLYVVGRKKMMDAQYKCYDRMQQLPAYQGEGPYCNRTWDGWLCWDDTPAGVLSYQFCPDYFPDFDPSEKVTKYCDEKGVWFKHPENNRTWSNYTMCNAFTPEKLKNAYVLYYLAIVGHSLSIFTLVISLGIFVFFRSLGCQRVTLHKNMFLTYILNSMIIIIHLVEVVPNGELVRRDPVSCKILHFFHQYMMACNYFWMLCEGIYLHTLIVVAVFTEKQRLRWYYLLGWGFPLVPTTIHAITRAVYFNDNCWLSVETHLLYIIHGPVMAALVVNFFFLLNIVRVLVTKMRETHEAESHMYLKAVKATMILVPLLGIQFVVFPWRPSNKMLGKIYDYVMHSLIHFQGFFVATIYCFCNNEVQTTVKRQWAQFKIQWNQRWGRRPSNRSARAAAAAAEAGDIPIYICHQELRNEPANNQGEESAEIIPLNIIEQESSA
T1 sequence (looked up) 2: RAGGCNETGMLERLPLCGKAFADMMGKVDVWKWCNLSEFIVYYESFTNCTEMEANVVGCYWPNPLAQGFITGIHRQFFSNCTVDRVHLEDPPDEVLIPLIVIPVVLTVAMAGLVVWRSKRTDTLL

| Binder | hAmylin-R funct. EC50 [nM] |
| --- | --- |
| B1 | 0.169 |
| B2 | 0.139 |
| B3 | 0.028 |
| B4 | 0.034 |
| B5 | 0.096 |
| B6 | 0.118 |

molecular target: T2, human calcitonin receptor (human, UniProt P30988 25-474); test: cell-based or functional assay
T2 sequence (looked up): T1 sequence (looked up) 1

| Binder | Ratio hCT/hAmylin funct. | hCTR funct. EC50 [nM] |
| --- | --- | --- |
| B1 | 32.5 | 5.49 |
| B2 | 15.4 | 2.14 |
| B3 | 38.8 | 1.09 |
| B4 | 65.1 | 2.21 |
| B5 | 60.9 | 5.85 |
| B6 | 9.7 | 1.15 |
